Our source for the IC50, binding result and EC50 values is patent US20240301068A1 (BEIJING HANMI PHARMACEUTICAL, published 2024).

The target of assay [1] is T1, recombinant human PD-L1 (Sino Biological Inc.) (human, UniProt Q9NZQ7 19-239). Briefly: PD-L1/CD80 blocking assay, competitor CD80, format not described.
Assay [2] concerns the target recombinant human CD28 (Sino Biological Inc.) (human, UniProt P10747 19-152). Kind of assay: ELISA, plate coated with 1 ug/mL recombinant human CD28, anti-human IgG-HRP, OD450; antibody concentration not shown. On the procedure: (§1) The plate was washed 5 times with PBST, and then blocked using PBST with 1% BSA, 300 μL/well, and incubated at 25° C. for 1 hour, and then washed 5 times with PBST. […] The horseradish peroxidase-labeled anti-human IgG antibody (Chemicon, catalog number AP309P) diluted 1:10000 in PBST with 1% BSA was then added, 100 μL per well, and incubated at 25° C. for 1 hour. The plate was washed 5 times with PBST. The colorimetric substrate TMB was added, 100 μL/well, and developed at room temperature for 10 minutes. 1M H₂SO₄ was added, 100 μL/well, to stop the development. The absorbance at 450 nm was read on a microplate reader.
On the technique in general: ELISA stands for enzyme-linked immunosorbent assay.

Assay [3] has as its target recombinant rat PD-L1 (Sino Biological Inc.) (rat, UniProt D4AE25 19-239). Briefly: ELISA, plate coated with 1 ug/mL recombinant rat PD-L1, anti-human IgG-HRP, OD450. On the procedure: (§2) A 96-well high-adsorption ELISA plate was coated with 1 μg/mL of the recombinant human PD-L1, cynomolgus PD-L1, rat PD-L1 and mouse PD-L1 (all purchased from Sino Biological Inc.), at 100 μL per well using carbonate buffer solution, pH=9.6 at 4° C. overnight. The plate was washed 5 times with PBST, and then blocked using PBST with 1% BSA, 300 μL/well, and incubated at 25° C. for 1 hour, and then washed 5 times with PBST. The chimeric anti-human PD-L1 antibody samples serially diluted in PBST with 1% BSA were added, 100 μL/well, incubated at 25° C. for 1 hour, and then washed 5 times with PBST. The horseradish peroxidase-labeled anti-human IgG antibody (Chemicon, catalog number AP309P) diluted 1:10000 in PBST with 1% BSA was then added, 100 μL per well, and incubated at 25° C. for 1 hour. The plate was washed 5 times with PBST. The colorimetric substrate TMB was added, 100 μL/well, and developed at room temperature for 10 minutes. 1M H₂SO₄ was added, 100 μL/well, to stop the development. The absorbance at 450 nm was read on a microplate reader.

The target in assay [4] is T1, recombinant human PD-L1 (Sino …). Briefly: ELISA, plate coated with 1 ug/mL recombinant human PD-L1, anti-human IgG-HRP, OD450. On the procedure: as §2
Assay [5] concerns the target recombinant human BTLA (Sino Biological Inc.) (human, UniProt Q7Z6A9 31-157, limits assumed). Briefly: ELISA, plate coated with 1 ug/mL recombinant human BTLA, anti-human IgG-HRP, OD450; antibody concentration not shown. On the procedure:
as §1

T1 sequence (Q9NZQ7 19-239 limits assumed): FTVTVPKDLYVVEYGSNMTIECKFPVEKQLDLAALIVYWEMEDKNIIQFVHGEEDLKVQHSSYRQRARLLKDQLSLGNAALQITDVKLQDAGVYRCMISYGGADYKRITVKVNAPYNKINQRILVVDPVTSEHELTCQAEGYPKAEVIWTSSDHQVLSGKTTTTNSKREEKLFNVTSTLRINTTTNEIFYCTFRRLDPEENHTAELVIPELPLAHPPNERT
recombinant rat PD-L1 (Sino Biological Inc.), sequence (D4AE25 entry or part of it limits assumed): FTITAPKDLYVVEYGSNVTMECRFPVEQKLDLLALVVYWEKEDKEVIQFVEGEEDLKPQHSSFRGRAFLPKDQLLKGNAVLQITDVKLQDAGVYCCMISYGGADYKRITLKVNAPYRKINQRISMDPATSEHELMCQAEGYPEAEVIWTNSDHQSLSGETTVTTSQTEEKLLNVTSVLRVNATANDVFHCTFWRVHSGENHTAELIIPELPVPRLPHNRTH

B1: chimeric anti-human PD-L1 monoclonal antibody (antibody, human IgG1, kappa, V domains shown)
VH: EVQLQQSGAELVKPGASVKLSCTASGFNIEDTYIHWVMQRPEQGLEWIGRIDPANGNTKYDPKFQGKATITADTSSNTAYLQLSSLTSEDTAVYYCGRGLGAWFAYWGQGTLVTVSA
VL: DIVMTQSHKVMSTSVGDRVTITCKASQDVHTAVAWIHQKPGQSPKLLIYSASNRYTGVPDRFTGSGSGTDFTFTISSVQAEDLAVYYCQQHYITPLTFGAGTTLELKR
notes: expressed in ExpiCHO cells; also called Chimeric mAb; Chimeric antibody
For B1, the IC50 (usually the point on the concentration scale where inhibition reaches its midpoint) in assay [1] worked out at 0.762 nM. Also, the results for the binding result in assay [2], in assay [3] and in assay [5] were “no binding”, “no binding (tested: about 20 nM (last point on the log axis))” and “no binding”, respectively. Moreover, the EC50 (in general, the midpoint of the concentration-response curve) in assay [4] came to 0.056 nM.
